Data: article PMC10866885

How the values were obtained:
[1] = target: wild-type human VEGFR1 fused to mCherry (human) (UniProt P17948)
[2] = target: VEGFR1 C471R mutant fused to mCherry (human) (UniProt P17948)

## VEGF165 (ligand)
[1]
  diffusion coefficient (D confocal) of VEGFR1-mCherry on the plasma membrane of CHO cells by FRAP after 100 nM VEGF165, read as receptor dimerization: 0.018 µm^2 s^−1
[2]
  diffusion coefficient (D confocal) of VEGFR1 C471R-mCherry on the plasma membrane of CHO cells by FRAP after 100 nM VEGF165, read as receptor dimerization: 0.017 µm^2 s^−1
